Assay results as given in US20130029358A1, “IMMUNODOMINANT MHC DR52B RESTRICTED NY-ESO-1 EPITOPES, MHC CLASS II MONOMERS AND MULTIMERS, AND USES THEREOF” (LUDWIG INSTITUTE FOR CANCER RESEARCH LTD., priority 2010, published 2013).

Assays:
DR52b = biological target: T1, DR52b (Homo sapiens, UniProt P01903+P79483); experiment: DR52b competition binding assay with biotin-labeled HA306-318 peptide; details: relative to untagged peptide
T1 construct: made in house; host or cells: D.Mel-2 (Drosophila) cells, pMT/BiP/V5-His A vector, secreted, purified on L243 anti-HLA-DR column
Description: (§1) FIG. 16. DR52b binding capacity of His-tagged and untagged ESO peptides and recognition by specific clones. (A) The capacity of His-tagged and untagged ESO peptides to bind to DR52b was assessed in a competition assay with a biotin-labeled HA-derived peptide. ESO and control peptides were incubated overnight at 37° C., at the indicated concentrations, with recombinant empty DR52b protein (5 μg) and biotin-labeled HA306-318 peptide (0.2 μM). The quantity of DR52b molecules containing the biotin-labeled peptide in each test-point was assessed by ELISA using anti-HLA-DR (clone L243) coated plates and alkaline phosphatase-labeled streptavidin. (B) ESO specific clones were incubated with DR52b^+ EBV-B cells and ESO peptides, at the indicated concentrations, and IFN-γ was measured by ELISA in 24 hrs culture supernatants. Results are shown for one clone representative of 3 clones tested.
Because our new approach involves the addition of a His-tag to the ESO peptides, it was important to address the effect of this modification on peptide binding to class II molecules and recognition by specific CD4^+ T cells. With this aim we assessed the relative efficiency of untagged and His-tagged ESO peptides to bind to DR52b using a previously described competition assay (13).

ESO specific clones = experiment: Recognition of His-tagged and untagged ESO peptides by specific clones with DR52b+ EBV-B cells (IFN-γ ELISA); type: cell-based, human; details: 24 hrs
Description: as §1, with “tested. DR52b^+ ESO-specific CD4^+ T cell clones or polyclonal cultures were stimulated in the absence or presence of ESO peptides (2 μM) or PMA (100 ng/ml) and ionomycin (1 μg/ml), as indicated, and cytokine production was assessed in a standard 4 hrs intracellular cytokine staining assay using mAb specific for IFN-γ, TNF-α, IL-2, IL-4, IL-10 (BD Biosciences) and IL-17 (eBiosciences), as previously described (9, 34). […]” for “tested.”

Substance | effect of His-tag on peptide binding to DR52b (DR52b) | recognition by specific CD4+ T cells relative to untagged peptide (ESO specific clones)
His-tagged ESO119-143: ESO119-143 extended at the N-terminus by 6 His residues and a linker (Ser-Gly-Ser-Gly) | did not significantly modify | 
His-tagged ESO123-137: ESO123-137 extended at the N-terminus by 6 His residues and a linker (Ser-Gly-Ser-Gly) | did not significantly modify | moderately improved efficiency
